Where no end group is shown, it is not given here. [ ]: non-standard residue; d: D form. dOrn = NCCC[C@@H](N)C(=O)O
Experiments:
Experiment in all cases: cell-based or functional assay
[1] = target: T1, human Insulin-like growth factor 1 receptor (IGF-1R) (human, UniProt P08069 31-1367)
[2] = target: IGF-1 receptor of rat aorta (rat, UniProt P24062 31-1370)
[3] = target: T2, human Interleukin-1 receptor (IL-1R-alpha) (human, UniProt P14778 18-569)
T2 sequence: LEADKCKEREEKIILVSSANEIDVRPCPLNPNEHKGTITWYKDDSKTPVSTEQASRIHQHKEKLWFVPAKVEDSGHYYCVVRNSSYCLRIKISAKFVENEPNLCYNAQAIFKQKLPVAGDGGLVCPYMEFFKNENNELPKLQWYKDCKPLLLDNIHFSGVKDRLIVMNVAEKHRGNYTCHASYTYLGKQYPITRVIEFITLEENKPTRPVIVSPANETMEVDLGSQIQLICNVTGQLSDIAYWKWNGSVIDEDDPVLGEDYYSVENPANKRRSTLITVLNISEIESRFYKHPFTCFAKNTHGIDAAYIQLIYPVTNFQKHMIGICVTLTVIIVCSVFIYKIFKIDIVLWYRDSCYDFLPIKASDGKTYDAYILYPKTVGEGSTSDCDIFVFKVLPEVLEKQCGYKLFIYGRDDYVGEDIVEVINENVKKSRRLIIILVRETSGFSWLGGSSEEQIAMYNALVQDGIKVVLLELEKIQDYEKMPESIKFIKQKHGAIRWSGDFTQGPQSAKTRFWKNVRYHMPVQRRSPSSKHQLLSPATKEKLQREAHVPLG

[4] = target: T1, human Insulin-like growth factor 1 …; remark: listed apart in the source
[5] = target: T2, human Interleukin-1 receptor …; remark: listed apart in the source
[6] = target: T1, human Insulin-like growth factor 1 …; remark: listed apart in the source
[7] = target: T2, human Interleukin-1 receptor …; remark: listed apart in the source
[8] = target: VEGFR-2 (Flk-1) (human, UniProt P35968 20-1356)
[9] = target: T3, IL-1R of pig (piglet pial vessels; porcine endothelial cells) (porcine (piglet), UniProt A0A5G2QSI4 18-572)
T3 sequence: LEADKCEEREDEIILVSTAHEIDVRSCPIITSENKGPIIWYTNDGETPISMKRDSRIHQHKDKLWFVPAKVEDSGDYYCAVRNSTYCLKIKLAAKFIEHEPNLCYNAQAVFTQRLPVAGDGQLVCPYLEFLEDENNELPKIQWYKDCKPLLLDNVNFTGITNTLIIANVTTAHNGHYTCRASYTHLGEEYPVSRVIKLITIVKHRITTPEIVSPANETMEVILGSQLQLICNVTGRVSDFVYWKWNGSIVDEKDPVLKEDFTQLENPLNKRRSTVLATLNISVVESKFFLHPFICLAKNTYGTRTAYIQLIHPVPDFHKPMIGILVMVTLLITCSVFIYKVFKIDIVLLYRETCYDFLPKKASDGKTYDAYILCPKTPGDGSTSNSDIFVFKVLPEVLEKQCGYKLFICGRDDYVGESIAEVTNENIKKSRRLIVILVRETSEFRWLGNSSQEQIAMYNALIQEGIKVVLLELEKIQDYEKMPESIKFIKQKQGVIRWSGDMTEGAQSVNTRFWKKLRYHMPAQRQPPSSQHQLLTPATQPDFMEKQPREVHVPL

T1 sequence (P08069 31-1367 limits assumed): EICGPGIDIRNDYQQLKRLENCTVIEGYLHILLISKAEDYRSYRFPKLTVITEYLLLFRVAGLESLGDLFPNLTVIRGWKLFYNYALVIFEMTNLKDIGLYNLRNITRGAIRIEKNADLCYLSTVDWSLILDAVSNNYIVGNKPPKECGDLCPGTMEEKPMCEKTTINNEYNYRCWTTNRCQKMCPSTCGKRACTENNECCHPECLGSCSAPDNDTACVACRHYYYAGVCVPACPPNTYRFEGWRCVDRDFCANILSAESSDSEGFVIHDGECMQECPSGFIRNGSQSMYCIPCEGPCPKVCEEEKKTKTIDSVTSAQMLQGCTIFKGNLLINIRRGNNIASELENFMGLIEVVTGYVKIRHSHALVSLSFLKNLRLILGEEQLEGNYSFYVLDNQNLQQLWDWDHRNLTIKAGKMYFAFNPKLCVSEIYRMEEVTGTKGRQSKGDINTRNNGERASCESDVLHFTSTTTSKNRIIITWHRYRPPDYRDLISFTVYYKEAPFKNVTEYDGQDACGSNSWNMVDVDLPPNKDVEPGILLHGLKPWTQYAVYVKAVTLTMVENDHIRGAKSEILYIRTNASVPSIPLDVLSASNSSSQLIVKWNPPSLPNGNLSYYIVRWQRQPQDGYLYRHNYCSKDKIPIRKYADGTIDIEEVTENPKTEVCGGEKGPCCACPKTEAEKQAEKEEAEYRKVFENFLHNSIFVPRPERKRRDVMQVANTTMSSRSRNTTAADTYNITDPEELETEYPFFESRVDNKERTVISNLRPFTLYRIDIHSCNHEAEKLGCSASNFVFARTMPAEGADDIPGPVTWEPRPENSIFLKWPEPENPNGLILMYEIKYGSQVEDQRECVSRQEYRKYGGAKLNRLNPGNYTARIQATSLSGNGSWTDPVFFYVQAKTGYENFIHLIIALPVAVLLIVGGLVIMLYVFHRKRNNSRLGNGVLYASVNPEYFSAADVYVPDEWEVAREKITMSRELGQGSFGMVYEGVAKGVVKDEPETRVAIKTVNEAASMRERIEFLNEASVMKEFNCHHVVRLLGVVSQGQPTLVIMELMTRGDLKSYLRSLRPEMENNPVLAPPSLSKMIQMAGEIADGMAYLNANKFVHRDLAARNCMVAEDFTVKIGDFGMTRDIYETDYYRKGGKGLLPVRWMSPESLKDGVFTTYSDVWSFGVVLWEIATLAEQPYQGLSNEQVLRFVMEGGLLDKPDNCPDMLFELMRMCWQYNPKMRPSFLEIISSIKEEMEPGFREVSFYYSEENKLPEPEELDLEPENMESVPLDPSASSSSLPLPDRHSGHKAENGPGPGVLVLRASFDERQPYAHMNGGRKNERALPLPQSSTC
Chain of IGF-1 receptor of rat aorta (P24062 31-1370): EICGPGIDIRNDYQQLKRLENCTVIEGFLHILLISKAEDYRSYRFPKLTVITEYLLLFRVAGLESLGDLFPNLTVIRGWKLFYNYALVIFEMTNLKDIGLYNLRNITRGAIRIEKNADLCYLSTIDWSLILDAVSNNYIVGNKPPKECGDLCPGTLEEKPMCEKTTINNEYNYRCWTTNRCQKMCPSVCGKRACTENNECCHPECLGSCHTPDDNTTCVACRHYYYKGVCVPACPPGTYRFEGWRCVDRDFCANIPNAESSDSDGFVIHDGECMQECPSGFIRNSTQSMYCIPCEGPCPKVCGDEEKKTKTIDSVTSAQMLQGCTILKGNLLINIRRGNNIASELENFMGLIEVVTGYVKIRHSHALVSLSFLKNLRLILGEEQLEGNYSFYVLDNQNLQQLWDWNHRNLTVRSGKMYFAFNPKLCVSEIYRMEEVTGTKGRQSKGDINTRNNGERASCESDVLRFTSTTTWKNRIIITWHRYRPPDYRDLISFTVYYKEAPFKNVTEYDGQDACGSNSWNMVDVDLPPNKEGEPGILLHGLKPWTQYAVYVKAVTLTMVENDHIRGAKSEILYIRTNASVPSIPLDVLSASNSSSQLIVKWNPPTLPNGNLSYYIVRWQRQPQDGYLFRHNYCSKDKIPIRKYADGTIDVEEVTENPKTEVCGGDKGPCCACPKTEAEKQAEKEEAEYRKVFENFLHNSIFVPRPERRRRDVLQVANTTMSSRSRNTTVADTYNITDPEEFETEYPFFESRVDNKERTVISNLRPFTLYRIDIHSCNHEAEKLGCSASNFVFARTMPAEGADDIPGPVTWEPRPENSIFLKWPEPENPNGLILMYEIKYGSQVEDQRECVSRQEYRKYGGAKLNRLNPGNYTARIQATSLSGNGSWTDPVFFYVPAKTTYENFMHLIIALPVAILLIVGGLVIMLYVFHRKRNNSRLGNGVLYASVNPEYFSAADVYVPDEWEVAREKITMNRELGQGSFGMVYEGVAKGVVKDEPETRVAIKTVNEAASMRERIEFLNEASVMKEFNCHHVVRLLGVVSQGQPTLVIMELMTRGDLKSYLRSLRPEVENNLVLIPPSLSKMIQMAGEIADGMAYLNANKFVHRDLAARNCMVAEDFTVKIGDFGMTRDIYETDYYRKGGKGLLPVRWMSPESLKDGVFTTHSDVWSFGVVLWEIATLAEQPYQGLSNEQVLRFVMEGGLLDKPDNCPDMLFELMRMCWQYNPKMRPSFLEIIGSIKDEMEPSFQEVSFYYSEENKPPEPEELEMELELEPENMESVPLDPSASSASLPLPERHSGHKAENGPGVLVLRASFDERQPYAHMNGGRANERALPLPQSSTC
Chain of VEGFR-2 (Flk-1) (P35968 20-1356 limits assumed): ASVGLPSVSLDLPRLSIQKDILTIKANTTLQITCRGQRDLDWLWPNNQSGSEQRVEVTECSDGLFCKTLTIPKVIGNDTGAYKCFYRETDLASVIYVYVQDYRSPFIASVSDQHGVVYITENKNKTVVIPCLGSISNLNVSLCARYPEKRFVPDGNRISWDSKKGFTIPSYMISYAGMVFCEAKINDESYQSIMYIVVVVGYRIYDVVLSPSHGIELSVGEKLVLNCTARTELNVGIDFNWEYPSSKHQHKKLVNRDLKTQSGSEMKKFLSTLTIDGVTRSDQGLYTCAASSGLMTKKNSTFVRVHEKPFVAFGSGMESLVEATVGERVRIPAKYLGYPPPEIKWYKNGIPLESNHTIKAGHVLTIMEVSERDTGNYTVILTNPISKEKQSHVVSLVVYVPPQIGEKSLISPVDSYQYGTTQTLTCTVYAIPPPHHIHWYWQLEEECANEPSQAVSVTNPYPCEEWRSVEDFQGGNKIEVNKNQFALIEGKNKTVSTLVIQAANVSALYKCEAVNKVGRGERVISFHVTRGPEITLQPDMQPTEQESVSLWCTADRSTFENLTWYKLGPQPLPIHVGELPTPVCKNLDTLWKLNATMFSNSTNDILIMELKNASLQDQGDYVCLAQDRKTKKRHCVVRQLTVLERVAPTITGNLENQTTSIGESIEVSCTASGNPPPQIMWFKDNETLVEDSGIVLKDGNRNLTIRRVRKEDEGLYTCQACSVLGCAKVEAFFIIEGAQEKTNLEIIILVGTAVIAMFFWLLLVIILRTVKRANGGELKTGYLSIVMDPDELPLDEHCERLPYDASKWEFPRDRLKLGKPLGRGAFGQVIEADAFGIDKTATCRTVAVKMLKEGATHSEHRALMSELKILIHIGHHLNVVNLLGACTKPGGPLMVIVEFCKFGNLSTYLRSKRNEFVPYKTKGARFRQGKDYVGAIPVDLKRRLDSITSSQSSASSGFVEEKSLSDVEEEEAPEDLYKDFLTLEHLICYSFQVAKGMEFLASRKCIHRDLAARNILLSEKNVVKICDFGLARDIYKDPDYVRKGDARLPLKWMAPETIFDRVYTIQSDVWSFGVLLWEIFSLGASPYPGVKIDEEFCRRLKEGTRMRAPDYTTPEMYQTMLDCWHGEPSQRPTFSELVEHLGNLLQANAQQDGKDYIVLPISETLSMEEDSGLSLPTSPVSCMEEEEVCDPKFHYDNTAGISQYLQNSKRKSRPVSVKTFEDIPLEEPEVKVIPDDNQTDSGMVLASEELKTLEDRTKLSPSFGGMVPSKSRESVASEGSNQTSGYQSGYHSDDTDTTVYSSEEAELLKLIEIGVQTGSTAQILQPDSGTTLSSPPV

RTNASVPSI [APG-203]
EC50, IGF-1 (50 ng/ml)-induced proliferation, HepG2 [1]: < 0.1 nM | EC50, IGF-1 (50 ng/ml)-induced proliferation, MCF-7 [1]: 8 nM | EC50, IGF-1 (50 ng/ml)-induced proliferation, MDA-MB-231 [1]: 0.1 nM | Emax, IGF-1 (50 ng/ml)-induced proliferation, MCF-7 [1]: 45% | Emax, IGF-1 (50 ng/ml)-induced proliferation, MDA-MB-231 [1]: 100% | EC50, inhibition of ex vivo IGF-1-induced vasorelaxation of rat aorta [2]: 96 nM | Emax, inhibition of ex vivo IGF-1-induced vasorelaxation of rat aorta [2]: 50%

[dR][dW][dT][dP][dE][dL] [API-101.128]
Emax (%), IL-1β-induced TF-1 proliferation [3]: 100% | IC50, IL-1β-induced TF-1 proliferation [3]: 3 nM

[dK][dY][dT][dP][dE][dL] [API-101.133]
Emax (%), IL-1β-induced TF-1 proliferation [3]: < 10%

RTVLSNL [APG-206.8]
Emax, proliferation, MCF-7 (breast cancer) cells [4]: 100% | IC50, proliferation, MCF-7 (breast cancer) cells [4]: 0.6 nM

[dR][dY][dT][dP][dE][dV] [API-101.129]
Emax (%), IL-1β-induced TF-1 proliferation [3]: 50% | IC50, IL-1β-induced TF-1 proliferation [3]: 400 nM

[dY][dT][dV][dE][dL][dA] [API-101.11]
percent of IL-1β-induced WI-38 (human lung fibroblasts) proliferation abolished, 3H-thymidine [5]: 100%

[dS][dL][dF][dV][dP][dR][dP][dE][dR][dK] [APG-201]
EC50, IGF-1 induced proliferation, 3H-thymidine, A549 carcinoma cells [6]: 1000 nM | EC50, IGF-1 (50 ng/ml)-induced proliferation, MCF-7 [1]: 35 nM | EC50, IGF-1 (50 ng/ml)-induced proliferation, MDA-MB-231 [1]: 0.1 nM | Emax, IGF-1 (50 ng/ml)-induced proliferation, MCF-7 [1]: 20% | Emax, IGF-1 (50 ng/ml)-induced proliferation, MDA-MB-231 [1]: 100%

[dOrn][dY][dT][dP][dE][dL][dA] [API-101.115]
Emax (%), IL-1β-induced proliferation in TF-1 cells (human) [7]: 100% | IC50, IL-1β-induced proliferation in TF-1 cells (human) [7]: ~0.001 nM

VGSPKNAVPPV [API-106]
EC50, IL-1 induced proliferation, 3H-thymidine, A549 carcinoma cells [5]: 10000 nM

[dR][dY][dT][dV][dQ][dL][dA] [API-101.103]
IC50, PGE2 measurement, human WI-38 cells [5]: 50 nM

[dR][dF][dV][dP][dE][dL][dA] [API-101.127]
Emax (%), IL-1β-induced TF-1 proliferation [3]: < 30%

[dE][dA][dT][dV]G[dE][dR][dV][dR][dL] (not fully specified (residue 5)) [VEGFR peptide 2.2]
EC50, VEGF (2 ng/ml)-induced proliferation, 3H-thymidine, PAEC transfected with Flk-1 [8]: 9000 nM

R[dY][dT][dP][dE][dL] [API-101.135]
Emax (%), IL-1β-induced TF-1 proliferation [3]: 63%

[dK][dY][dT][dP][dE][dL][dA] [API-101.114]
Emax (%), IL-1β-induced PGE2 synthesis in endothelial cells (porcine) [9]: 50% | IC50, IL-1β-induced PGE2 synthesis in endothelial cells (porcine) [9]: 0.002 nM

Source: patent publication US20090048161A1 (VALORISATION HSJ SOCIETE EN COMMANDITE, published 2009)
